{"source": "patent US11932673B2", "about": "“Sodium channel inhibitors” (priority 2017, dated 2024)", "molecules": {"B1": {"name": "KB_A12: EETI-II VL CDR2 KnotBody, D1A12 VH, VL SEQ ID NO: 105/373; parental/isotype control (antibody, V domains shown)", "VH": "EVQLVESGGGLVRPGGSLRLSCAASGFTFSSYAMSWVRQAPGKGLEWVSAISGSGGSTYYADSVKGRFTISRDNTKNSLYLQMTSLRADDTAFYYCVKDFGPGYGTGWFDYWGPGTLVTVSS", "VL": "QSVLTQPPSVSEAPRQRVTITCSGSSSNIGNNAVNWYQQLPGKAPKLLIYAAGRCPRILMRCKQDSDCLAGCVCGPNGFCGANSGVSDRFSAAKSGTSASLAINGLRSEDEADYYCAAWDDSLNGYVFGTGTKLTVLG"}}, "target": "human Nav1.7 (Homo sapiens, UniProt Q15858)", "sequence (Q15858 other isoform, or with tags, fused parts or gaps)": "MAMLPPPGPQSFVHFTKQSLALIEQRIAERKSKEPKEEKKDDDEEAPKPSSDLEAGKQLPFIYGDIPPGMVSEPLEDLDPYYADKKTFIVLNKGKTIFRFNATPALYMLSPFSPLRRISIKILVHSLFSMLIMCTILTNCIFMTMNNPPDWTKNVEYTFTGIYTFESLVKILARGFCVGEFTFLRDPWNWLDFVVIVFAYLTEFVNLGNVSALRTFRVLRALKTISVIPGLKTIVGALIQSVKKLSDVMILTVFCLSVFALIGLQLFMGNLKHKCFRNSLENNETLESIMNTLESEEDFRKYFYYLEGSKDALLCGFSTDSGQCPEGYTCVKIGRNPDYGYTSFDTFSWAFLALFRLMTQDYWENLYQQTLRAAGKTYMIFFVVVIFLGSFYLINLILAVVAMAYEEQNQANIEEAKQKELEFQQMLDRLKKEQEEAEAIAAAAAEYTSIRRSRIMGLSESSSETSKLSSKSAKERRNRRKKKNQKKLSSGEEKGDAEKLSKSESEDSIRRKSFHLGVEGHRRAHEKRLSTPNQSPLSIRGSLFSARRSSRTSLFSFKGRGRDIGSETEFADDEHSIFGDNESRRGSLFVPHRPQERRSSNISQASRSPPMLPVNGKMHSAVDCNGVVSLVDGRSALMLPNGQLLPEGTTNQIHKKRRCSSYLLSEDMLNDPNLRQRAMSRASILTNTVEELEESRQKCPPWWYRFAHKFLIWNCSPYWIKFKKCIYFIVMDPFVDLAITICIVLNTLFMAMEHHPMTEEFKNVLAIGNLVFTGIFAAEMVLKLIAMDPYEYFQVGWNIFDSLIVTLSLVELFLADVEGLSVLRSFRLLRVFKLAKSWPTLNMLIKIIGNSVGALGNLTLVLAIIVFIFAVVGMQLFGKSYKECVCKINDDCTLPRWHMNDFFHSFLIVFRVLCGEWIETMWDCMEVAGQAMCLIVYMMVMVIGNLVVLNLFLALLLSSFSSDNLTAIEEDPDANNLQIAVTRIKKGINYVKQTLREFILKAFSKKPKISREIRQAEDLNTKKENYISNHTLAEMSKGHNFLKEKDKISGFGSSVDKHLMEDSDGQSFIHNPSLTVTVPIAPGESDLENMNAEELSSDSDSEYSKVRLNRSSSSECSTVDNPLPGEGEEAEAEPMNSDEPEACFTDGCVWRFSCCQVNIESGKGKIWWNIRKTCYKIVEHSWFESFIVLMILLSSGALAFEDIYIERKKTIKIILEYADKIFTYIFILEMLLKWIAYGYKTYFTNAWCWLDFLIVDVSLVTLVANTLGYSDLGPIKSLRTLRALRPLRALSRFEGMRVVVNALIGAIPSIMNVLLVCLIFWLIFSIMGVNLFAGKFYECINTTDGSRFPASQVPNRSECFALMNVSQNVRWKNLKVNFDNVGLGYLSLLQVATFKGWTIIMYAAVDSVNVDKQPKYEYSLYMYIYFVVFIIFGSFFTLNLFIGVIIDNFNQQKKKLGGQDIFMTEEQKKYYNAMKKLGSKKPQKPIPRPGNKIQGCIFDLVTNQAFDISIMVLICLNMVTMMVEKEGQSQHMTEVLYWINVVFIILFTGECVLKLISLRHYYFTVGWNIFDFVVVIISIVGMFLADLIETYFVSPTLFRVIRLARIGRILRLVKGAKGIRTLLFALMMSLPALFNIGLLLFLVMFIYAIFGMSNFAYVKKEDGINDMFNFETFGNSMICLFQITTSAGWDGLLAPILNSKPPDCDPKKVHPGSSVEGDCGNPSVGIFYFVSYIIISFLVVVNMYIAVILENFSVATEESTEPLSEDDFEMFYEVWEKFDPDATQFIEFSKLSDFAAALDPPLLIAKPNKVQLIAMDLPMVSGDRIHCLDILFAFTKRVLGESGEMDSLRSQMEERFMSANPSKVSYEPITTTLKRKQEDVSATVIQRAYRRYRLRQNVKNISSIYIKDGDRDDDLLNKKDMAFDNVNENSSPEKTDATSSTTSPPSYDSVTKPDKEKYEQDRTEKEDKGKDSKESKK", "assay": "QPatch patch-clamp on CHO cells stably expressing human Nav1.7, four-point concentration-response (Example 21)", "assay_type": "cell-based", "details": "every 15-minute application of equivalent concentrations", "method": "The effect of these KnotBodies on cells expressing human Nav1.7 (huNav1.7) channel was then assessed using QPatch automated patch-clamp platform (Sophion). For the testing of Nav1.7 ion channel currents, CHO cells stably expressing human Nav1.7 (GenBank accession number NM 002977; cell line catalogue number CT6003, Charles River Discovery, Cleveland, USA) were subjected to the QPatch electrophysiology assay in the presence or absence of the KnotBody fusions or the antibody isotypes (negative controls). Internal and external physiological solutions were freshly prepared prior to the assay. […] To these measured control currents four ascending concentrations (0.37, 1.1, 3.3 and 10 μM) of KnotBody or parental antibody isotypes (control molecules) were applied to the external bathing solution containing 0.1% BSA. […] The elicited, maximum outward current values measured during the −10 mV activating step for each solution period (a control, baseline level of current was determined at 15 minutes after application of the control external recording solution and a test level of current was determined after 15 minutes of application of each concentration of KnotBody or its isotype control) and average inhibition was determined. […] From these concentration-response curves IC50 values were calculated."}
{"molecule": "B1", "values": [{"measurement": "cumulative current loss", "result": "~5", "unit": "%"}]}
